According to patent US20090291081A1 (AbbVie / Abbott, published 2009):

Molecular target: T1, human IL-1β (human, UniProt P01584 117-269)
T1 construct: antigen of the ABT2 dAbs; also called hIL-1β; IL-1 beta
Test: IC50 column of Table 63; receptor binding assay presumed

Row | Binder | IC50 [nM]
1 | ABT2-65-10 (other, VH dAb) VH: VQLSESGGGLVQPGGSLRLSCAASGFTFTEYNMGWVRQAPGKGLEWVSSISAMGNRTYYADSVKGRFTISRDDSKNTLYLQMNSLRAEDTAVYYCANNLVRTQSKMWMFDYWGQGTLVTVSS | 20
2 | ABT2-65-133 (other, VH dAb) VH: EVQLLESGGGLVQPGGSLRLSCAASGFTFEDYQMGWVRQAPGKGLEWVSSISAMGNRTYYADSVKGRFTISRDDSKNTLYLQMNSLRAEDTAVYYCAENLVHWKRGGWMFDYWGQGTLVTVSS | 30
3 | ABT2-65-172 (other, VH dAb) VH: EVQLLESGGGLVQPGGSLRLSCAASGFTFEDYQMGWVRQAPGKGLEWVSSISAMGNRTYYADSVKGRFTISRDDSKNTLYLQMNSLRAEDTAVYYCAENLVRWKKGSWMFDYWGQGTLVTVSS | 6
4 | ABT2-65-175 (other, VH dAb) VH: EVQLLESGGGLVQPGGSLRLSCAASGFTFEDYQMGWVRQAPGKGLEWVSSISAMGNRTYYADSVKGRFTISRDDSKNTLYLQMNSLRAEDTAVYYCAENLVRIAGDRWMFDYWGQGTLVTVSS | 10
5 | ABT2-65-155 (other, VH dAb) VH: EVQLLESGGGLVQPGGSLRLSCAASGFTFEDYQMGWVRQAPGKGLEWVSSISAMGNRTYYADSVKGRFTISRDDSKNTLYLQMNSLRAEDTAVYYCAQNLVLVQRRKWMFDYWGQGTLVTVSS | 5
6 | ABT2-65-156 (other, VH dAb) VH: EVQLLESGGGLVQPGGSLRLSCAASGFTFEDYQMGWVRQAPGKGLEWVSSISAMGNRTYYADSVKGRFTISRDDSKNTLYLQMNSLRAEDTAVYYCAQNLVRIGRNKWMFDYWGQGTLVTVSS | 5
7 | ABT2-65-152 (other, VH dAb) VH: EVQLLESGGGLVQPGGSLRLSCAASGFTFEDYQMGWVRQAPGKGLEWVSSISAMGNRTYYADSVKGRFTISRDDSKNTLYLQMNSLRAEDTAVYYCAENLVRWKSSAWMFDYWGQGTLVTVSS | 5
8 | ABT2-65-138 (other, VH dAb) VH: EVQLLESGGGLVQPGGSLRLSCAASGFTFEDYQMGWVRQAPGKGLEWVSSISAMGNRTYYADSVKGRFTISRDDSKNTLYLQMNSLRAEDTAVYYCAENLVRVTARKWMFDYWGQGTLVTVSS | 5
9 | ABT2-65-170 (other, VH dAb) VH: EVQLLESGGGLVQPGGSLRLSCAASGFTFEDYQMGWVRQAPGKGLEWVSSISAMGNRTYYADSVKGRFTISRDDSKNTLYLQMNSLRAEDTAVYYCAENLVRVLLNKWMFDYWGQGTLVTVSS | 10
10 | ABT2-65-144 (other, VH dAb) VH: EVQLLESGGGLVQPGGSLRLSCAASGFTFEDYQMGWVRQAPGKGLEWVSSISAMGNRTYYADSVKGRFTISRDDSKNTLYLQMNSLRAEDTAVYYCAENLVRISKKQWMFDYWGQGTLVTVSS | 6
11 | ABT2-65-171 (other, VH dAb) VH: EVQLLESGGGLVQPGGSLRLSCAASGFTFEDYQMGWVRQAPGKGLEWVSSISAMGNRTYYADSVKGRFTISRDDSKNTLYLQMNSLRAEDTAVYYCAQNLVRLNRSQWMFDYWGQGTLVTVSS | 7.5
12 | ABT2-65-173 (other, VH dAb) VH: EVQLLESGGGLVQPGGSLRLSCAASGFTFEDYQMGWVRQAPGKGLEWVSSISAMGNRTYYADSVKGRFTISRDDSKNTLYLQMNSLRAEDTAVYYCAQNLVRFRAKEWMFDYWGQGTLVTVSS | 30
13 | ABT2-65-174 (other, VH dAb) VH: EVQLLESGGGLVQPGGSLRLSCAASGFTFEDYQMGWVRQAPGKGLEWVSSISAMGNRTYYADSVKGRFTISRDDSKNTLYLQMNSLRAEDTAVYYCAQNLVRFKKTQWMFDYWGQGTLVTVSS | 10
14 | ABT2-65-169 (other, VH dAb) VH: EVQLLESGGGLVQPGGSLRLSCAASGFTFEDYQMGWVRQAPGKGLEWVSSISAMGNRTYYADSVKGRFTISRDDSKNTLYLQMNSLRAEDTAVYYCAENLVNWRRGSWMFDYWGQGTLVTVSS | 9
15 | ABT2-65-158 (other, VH dAb) VH: EVQLLESGGGLVQPGGSLRLSCAASGFTFEDYQMGWVRQAPGKGLEWVSSISAMGNRTYYADSVKGRFTISRDDSKNTLYLQMNSLRAEDTAVYYCAQNLVKWKRDFWMFDYWGQGTLVTVSS | 5
16 | ABT2-65-167 (other, VH dAb) VH: EVQLLESGGGLVQPGGSLRLSCAASGFTFEDYQMGWVRQAPGKGLEWVSSISAMGNRTYYADSVKGRFTISRDDSKNTLYLQMNSLRAEDTAVYYCAQNLVRWKKNEWMFDYWGQGTLVTVSS | 30
17 | ABT2-65-141 (other, VH dAb) VH: EVQLLESGGGLVQPGGSLRLSCAASGFTFEDYQMGWVRQAPGKGLEWVSSISAMGNRTYYADSVKGRFTISRDDSKNTLYLQMNSLRAEDTAVYYCAENLVRIKQTKWMFDYWGQGTLVTVSS | 5

Row | Binder | IC50 [nM]
18 | ABT2-65-145 (other, VH dAb) VH: EVQLLESGGGLVQPGGSLRLSCAASGFTFEDYQMGWVRQAPGKGLEWVSSISAMGNRTYYADSVKGRFTISRDDSKNTLYLQMNSLRAEDTAVYYCAENLVRIQKVKWMFDYWGQGTLVTVSS | 5
19 | ABT2-65-176 (other, VH dAb) VH: EVQLLESGGGLVQPGGSLRLSCAASGFTFEDYQMGWVRQAPGKGLEWVSSISAMGSRTYYADSVKGRFTISRDDSKNTLYLQMNSLRAEDTAVYYCAENLVKVARGRWMFDYWGQGTLVTVSS | 5
20 | ABT2-65-148 (other, VH dAb) VH: EVQLLESGGGLVQPGGSLRLSCAASGFTFEDYQMGWVRQAPGKGLEWVSSISAMGNRTYYADSVKGRFTISRDDSKNTLYLQMNSLRAEDTAVYYCAQNLVRLGSKRWMFDYWGQGTLVTVSS | 4
21 | ABT2-65-143 (other, VH dAb) VH: EVQLLESGGGLVQPGGSLRLSCAASGFTFEDYQMGWVRQAPGKGLEWVSSISAMGNRTYYADSVKGRFTISRDDSKNTLYLQMNSLRAEDTAVYYCAENLVRLQRDRWMFDYWGQGTLVTVSS | 5
22 | ABT2-65-151 (other, VH dAb) VH: EVQLLESGGGLVQPGGSLRLSCAASGFTFEDYQMGWVRQAPGKGLEWVSSISAMGNRTYYADSVKGRFTISRDDSKNTLYLQMNSLRAEDTAVYYCAENLVRWRKHAWMFDYWGQGTLVTVSS | 6
23 | ABT2-65-137 (other, VH dAb) VH: EVQLLESGGGLVQPGGSLRLSCAASGFTFEDYQMGWVRQAPGKGLEWVSSISAMGNRTYYADSVKGRFTISRDDSKNTLYLQMNSLRAEDTAVYYCAENLVRTAKRRWMFDYWGQGTLVTVSS | 5
24 | ABT2-65-135 (other, VH dAb) VH: EVQLLESGGGLVQPGGSLRLSCAASGFTFEDYQMGWVRQAPGKGLEWVSSISAMGNRTYYADSVKGRFTISRDDSKNTLYLQMNSLRAEDTAVYYCAENLVRIKKMKWMFDYWGQGTLVTVSS | 5
25 | ABT2-65-159 (other, VH dAb) VH: EVQLLESGGGLVQPGGSLRLSCAASGFTFEDYQMGWVRQAPGKGLEWVSSISAMGNRTYYADSVKGRFTISRDDSKNTLYLQMNSLRAEDTAVYYCAENLVRVSKARWMFDYWGQGTLVTVSS | 5
26 | ABT2-65-168 (other, VH dAb) VH: EVQLLESGGGLVQPGGSLRLSCAASGFTFEDYQMGWVRQAPGKGLEWVSSISAMGNRTYYADSVKGRFTISRDDSKNTLYLQMNSLRAEDTAVYYCAQNLVRWKLESWMFDYWGQGTLVTVSS | 30
27 | ABT2-65-139 (other, VH dAb) VH: EVQLLESGGGLVQPGGSLRLSCAASGFTFEDYQMGWVRQAPGKGLEWVSSISAMGNRTYYADSVKGRFTISRDDSKNTLYLQMNSLRAEDTAVYYCAQNLVRVRVRRWMFDYWGQGTLVTVSS | 4
28 | ABT2-65-177 (other, VH dAb) VH: EVQLLESGGGLVQPGGSLRLSCAASGFTFEDYQMGWVRQAPGKGLEWVSSISAMGNRTYYADSVKGRFTISRDDSKNTLYLQMNSLRAEDTAVYYCAQNLVRFKVLQWMFDYWGQGTLVTVSS | 20
29 | ABT2-65-146 (other, VH dAb) VH: EVQLLESGGGLVQPGGSLRLSCAASGFTFEDYQMGWVRQAPGKGLEWVSSISAMGNRTYYADSVKGRFTISRDDSKNTLYLQMNSLRAEDTAVYYCAENLVRTMKRKWMFDYWGQGTLVTVSS | 6
30 | ABT2-65-149 (other, VH dAb) VH: EVQLLESGGGLVQPGGSLRLSCAASGFTFEDYQMGWVRQAPGKGLEWVSSISAMGNRTYYADSVKGRFTISRDDSKNTLYLQMNSLRAEDTAVYYCAENLVRVDRRRWMFDYWGQGTLVTVSS | 4
31 | ABT2-42 (other) VL: DIQMTQSPSSLSASVGDRVTITCRASQYIEKWLTWYQQKPGKAPTLLIYRGSLLQSGVPSRFSGSGSGTDFTLTISSLQPEDFATYYCQQTEYWPFTFGQGTKVEIKR | 770
32 | ABT2-46 (other) VL: DIQMTQSPSSLSASVGDRVTITCRASQSIIEWLSWYQQKPGKAPKLLIYRTSVLQSGVPSRFSGSGSGTDFTLTISSLQPEDFATYYCQQNEFWPFTFGQGTKVEIKR | 390
33 | ABT2-108 (other) VH: EVQLLESGGGLVQPGGSLRLSCAASGFTFAEYTMMWVRQAPGKGLEWVSRIGQDGKNTYYADSVKGRFTISRDNSKNTLYLQMNSLRAEDTAVYYCAKYTGRVGVHHLFDYWGQGTLVTSS | 70
